Measurements taken from paper PMC3206013, “Unique Interplay between Sugar and Lipid in Determining the Antigenic Potency of Bacterial Antigens for NKT Cells” (PLoS Biology, 2011).

Target: biotinylated mouse CD1d/β2m, wild type, loaded with α-GalCer (mouse) (UniProt P11609)
Assay: SPR; α-GalCer loaded

Vα14Vβ8.2 iNKT TCR (mouse invariant NKT cell T cell receptor)
Kd: 39.9 nM
